Experiment: soluble on expression in E. coli; label from the status in PepcDB or PDB records

| Sequence | soluble on expression in E. coli |
| --- | --- |
| MTLLNSRRAAGAFATTLVASTLGLSGCTSVTSSATSSPEPPTKVAAAMQTTTGETSISNETSFNASRETSLTALGFLDYLDEEQRAALLGEGLDISTLTWANQVTALRVLESLFNEHAYELVSAVIQHVAQEPGDNPHHFLKFSPEPSTENSWELTLDGPTVGLKVTFDPDGQITFKDAHLGLSPAEVVSVTEALDTSYSESQIKKAAEQLVGSLNPTQQAALQGSGLRGAQLTEEQKTLFLKMTSNWIDLANGDSGSEQQEEIADTFSDTYIIWNEQKDGSAFFQMKGPELDFSYKESVPENAELSARGVPNIQTSFQSPLEHHHHHH | not soluble |
| MRRLLKEQFEAELPEDIRFYMGGKSRVYAYKSCEFDEIASHRGIYFGTIERDGLRLSIEGSFIAGKLAKKNVIELDEESFGRWMRGEDIEADVKGYCIVKHGSYFAGCGKGNGRVLRNFVPKDRRVID | not soluble |
| MASGRQSGRDTEEYGGLSNSGISSGSHVKDTAYYERRRKNNAAAKKSRDRRRIKEDEIAIRAAYLERQNIELLCRIDALEVQLAAITSAKVTTAAAAAAALEHHHHHH | not soluble |
| MIPPSLPAELKAALEQLLQGTQRADAATRAERISLNYRGGGTSAPITSEADALAYAGARMPATYAAVIACLNALTAIRPDFAPATLLDVGAGPGTASWAAAQAFESLQGFTLLDANPALRNLALRLTEARRLSAIDYRLGDAGKALADAPEVTLVIASYLINELGDAARASFADALWRKTSDTLLVVEPGTPAGYQRILQLRDRLIAQGAHVIAPCPHENACPLAAPDWCHFVQRLPRSKLHLQLKSADVPFEDEKFSYVALTRVPLPQRPARVLTQPEQTKAAITAKLCTPAGKLKLAVAARRDKPAYARFRRLDWGDALEAQADLEHHHHHH | not soluble |
| MAFRVLVIGGYGNFGSLICNHLAMMPDIELVISGRDPRKLAEKVAALQTLAGRFCQSWCVDIMQDGAGSELGELGIDLLIHTAGPFQGQSYAVARHCIAAGVNYCDLSDCRTFVSGIATLDALAREAGVCVLSGCSSVPTLSAAIIDQHRQRFLRIDSIEHGISSAAKMPGLSTVR | not soluble |
| MDEFYISIETVGNNIVERYIDENGKERTREVEYLPTMFRHCKEESKYKDIYGKNCAPQKFPSMKDARDWMKRMEDIGLEALGMNDFKLAYISDTYGSEIVYDRKFVRVANCDIEVTGDKFPDPMKAEYEIDAITHYDSIDDRFYVFDLLNSMYGSVSKWDAKLAAKLDCEGGDEVPQEILDRVIYMPFDNERDMLMEYINLWEQKRPAIFTGWNIEGFDVPYIMNRVKMILGERSMKRFSPIGRVKSKLLQNMYGSKEIYSIDGVSILDYLDLYKKFAFTNLPSFSLESVAQHETKKGKLPYDGPINKLRETNHQRYISYNIIDVESVQAIDKIRGFIDLVLSMSYYAKMPFSGVMSPIKTWDAIIFNSLKGEHKVIPQQGSHVKQSF | soluble |
| MDDHNALLAERHTIFQSSLMTALLDGIYDGEISIGELLGHGNFGIGTFDALDGEMVILDGVCYQLRGDGSASEAALTQRSPFAIATNFVPRLKARVPRGMHRSELSDFITSLLPSENYMYAVRISGMFSSVSVRTVTKQERPYRPMTQATGDDAELEFTNVSGVVAGFRTPIYEKGIGVPGCHVHFIDTDRTSGGHVLDFTMSEGTIEVCPGTDLQLRLPLTQDFSKASLAPDDLDAQIHATEVKG | not soluble |
| MPKGNKKPNEKKEELEKFAKELQGSDSDEDAVVIEQPTVEPKLPQNDSSSSNKIVLSQAEKDLLRTELDKTEEEISTLKQVLSARQKHAAELKRKLGLTPFSELSQDINRSLKTVTDTDAYQKTAEVAAATSDTVKEKWNDMRNSSLFKSFESKLGSALNNAKMAASTSIDHLAGAARGPSQTGTPVAEEAKPIS | soluble |
| MKVIDLSQTFENNMSQFPGTPKIQLKAVTSVEESGYQVTDFHSVVHVGTHCDAPAHFISGATTIDQLPLDQFVGEAVLIDVTHIQERKLPKTVLHNTDIKEGDIVIFHSNLSTKWNTEAYEKEAFYLSEELAKELVRLKVKSIGLDFISPDEVTTETSPIHHILLGNDIYLIENLTNLDAIEEKRFFFSAAPLKIKNSDGAFARAFAVIFLEHHHHHH | soluble |
| SLQPEAPKPPQIGMANPASVYCQQKGGTLIPVQTAQGVSNNCKLPGGETIDEWALWRLDHPAGEK | soluble |
| VPDSSTALRILVYSDNVQTRERVMRALGKRLHPDLPDLTYVEVATGPMVIRQMDRGGIDLAILDGEATPTGGMGIAKQLKDELASCPPILVLTGRPDDTWLASWSRAEAAVPHPVDPIVLGRTVLSLLRAPAH | soluble |
| SNAMLSANQIKFLRSLRERKYRLREQAFAVEGPKLVGEMLPFYRCRMLVGTAAMLRAVSTPHDAEVVELPESFDFKRISTQTTPQPLMAVFDLPAEPEPVVEGLTLLLDGVQDPGNVGTILRTADWFGIRHVWLGTGSADVFSPKVVQASMGALARVQPTPLKNTVDTLAYFRRQGIPVYGAFLDGQSLYEAPLPNFTEPAILVLGSEGRGISPEVAAEITDRLTIPASGLSVKGHTESLNVAIATAILCSEWRRRS | soluble |
| MNYRHIYHAGNFADVFKHIIVTRIIEYLKRKEKAFRVIDTHAGIGIYDLSSLEAHKTGEWREGVYQLLSTPIPEDLKALLYPWCNIIETLNKGKKDILFYPGSPVLIRQLLRKQDRLTAIELHREDYHILAKNFAGDYQTKVLHLNGWLSLNAHLPPKEKRGFILVDPPFEKPGEFSRLIEGLMKAYRRFSGGIYALWYPVKYDKEIENFLHALHQTGIPKILQLEMRIRKSSIPPTMNGSGMILINPPYLLEEEIKKLSPFLIARLGQDKNAQITHKWIQKEQLLC | not soluble |
| NIDSNKKILQEIKRYADEHEERYGRFPKTLIFAVQDLANSSSHADQIVDQARDIFGRGDSFVQKITGKVDRPLQRIREFRNRKEPGIAVTVDLLSTGVDVPDIEYIVFLRSMKSRILFEQMIGRGTRKGEH | not soluble |
| IALENTIEQRLAADVATLVSAARVEKGRLVMPEHLPVEEFNLPEAKVLGYIYDQNGDLLWRSTSAADESINYTPRYDGRGNEFHTTRDAKGEEFFVFDVEIDLLRGKQAAYSIVTMQSVSEFESLLKGFREQL | not soluble |
| MASIFESPELIGAFIGEVEEQLQLLENNVVELEKNGGTAEVVQELFRAAHTLKGSSATMGFEKMKTLTHEMENVLDKIRNGLLEISRPVIDVLFECLDCLNMLKEDFVSDSNNVKTEITPVITKLKEISSENETNNQNSDSDKAENLETGRREQPIFVLDEKQQEQINQALGIGQNVLVCEVEILEDSQMKSVRACLIMNFLNEWGTVINMVPNVMEIPIDSDVGKVAFLVVTQMSADELRQKVQNDLMDIKEVRVFPYFIQNSISQTKDGETGVRDKDNSSGVKTATEEKRVVHTVRIDVDRLERMMDLVGELVIEQIRIAQVANNLYNQYPSDETVDDLIGISNRVSILINELQEGIMKTRMIPVQQLFSRFPRMVRDLSVSLNKEVNLVLEGGETEIDRTIMEEMSDPLIHLIRNAIDHGIENPEIRKKLGKPEQGTLRVTALPEDSNVIITVEDDGAGIDPQEIKQSAIKKRIVTEQEANNMTEQQLINLIFQTGFSTSQKVSDVSGRGVGMDIVKTHIEKLNGIIDVETCAGSGTKFIIKLPIKLPLTLAILKGLLVKISNETYALPMNNVVEIVRKPKNEIESINGQAVAVIRDRAIPLIWLHDYFGIPRGNERKNTLIVLLGIAEKRFGLVVDELIGNQEIVVTNLGSYIGKVEGISGATILGDRSVACILDVVGIAKIVNSRKVSRIDVEYSKQ | not soluble |
| IAAVGDGVCMLDRGFRIVYQNRAHERLLGEHGGERCSDAYGEDPDACRDCPMARAMDTGEVCTGSRRFISKGETRLLEITSSPVRNAAGEIVAGVEVVRDVT | not soluble |
| MCFRIADGTFFGWEGCFFQAGSCPGTCTHVWNYAQTVANLFPRLERNMRETEFLRETDGQGKMNFRAKIQLEGKPWDMYPAVDGQLGSILRVYREWKISGDDDFLKKIWNQVVSALEFSASYWDSNQDCVLDGQQHNTYDIEFYGVNSLGNSIYYAALKAGAEMAEYLGEHERSQKWRSMEQAGCKRMDEMLFNGEYYRQVTDGDIDEYKYQYGEGCLSDQLLGQTLAHLYGLGHLFPEDHVKSAVFAIYKYNFKERMGSHKSLQRGYAYQDEPGLLLCSWPSGGRPKQPFVYSDEVWTGIEYQVAAGLIYEGFLQEGLEIVRAVRSRYDGYKRNPFNEVECGNHYARSMASWGVLNALSGLQVDLPHNSVTISPKVNQDCFSSFYSTGTEWGICRQFKDQSGALIQSFEALYHADLEHHHHHH | not soluble |
| INYEKVGLKVGLEIHQQLNTKRKLFCHCPTILRDDEPDGEIVRVLRPSLSEMGEVDRAALIEARKGKKFIYQFYNDTTCLVELDEEPPHPPSEEALRIALEVALLMNMNVVDVAYTMRKIVIDGSNTSGFQRTIFLARDGYIETSEGKVGITSLCLEEDAARKIEDRGDAVVYNLDRLGIPLVEISTAPDIKTPKMAKEAARRIGEILRATGKVKRGLGTIRQDINISIKDGARIEVKGVQDLDLIEKVVENEVIRQLNLL | not soluble |
| MKRTIILFDINETVLNLSALKPKFKATFGDESVMATWFSMLLHSSTVCIMTSVKTDFATLAGTMLESIAARMSIKLSKAARDDILAGFANLPPHNDIKPALAQLKSAGFRTVAFSNSSLNLISTQITNAGLKEYFDDIISVEETGSFKPDPTVYKFAAKRLNQPLESLRLVATHDWDTHGALSVEMRAAYINRSGAVYHPLYRQPDIYATTMEDIVKLIIEKDD | not soluble |
| MEDGHISSWWVVDLGEEHQLMCNYYTFRQDGSRAFTRFWKFQGSMDGKTWTDLRVHEDDQTMCKAGQFASWPITAANALLPFRFFRLVLTGPTADTSTPWNFCICYLELYGYFR | not soluble |
| MSLRDIAIGASLELSGPTQSIGTAYKKALELQVDSINEQGGVLGGRKLRLVVKDNQTKPAQNITNVNDLINNDHVVAVITGGCSACTVPVTSIVEKRKVPLISLASATAITDPVAERQYTFKISPNPAQDAEVLLADLKKKGVKSVGLLNVDNPYGQEGRAAVLAQAKKAGIEVTGTQQFGQEDKDMSVQAKRLVDDRPEAVVVWAVMPAAGIIAKNLRDAEFDGGVYLDAGAGAELFVKGAQGAAEGVHMVFPRVLAIGDVTSGGDSVRKQKQWVARYTDRYQDYSGFASFAADAALMLRDAIAKSGSTDGAELRDTIETIGFDGVSGPIRNSAKEHSGLQPESLGVLVVRDGDWHLANEGHHHHHH | soluble |
| GPGSMLRRTLRRLMPSDAIGSVHPDVLWGYQQGQYAGPGWANFVKSLPLETLAMQGGSTMANLNDRAGTFLDPEDPRHPLALMQFGIMGKMDGTFHQLAYGDFGRVPKGSRLMQVLYENYLEPFSMNRVCAQLYFYQKVPNNYHASVDATAEYVGQTASLVGQVVVGLGACIMEGVTIRADTNCVYIAEGVQILENTCIMSDAPTDLLAYQRHELLNPYQQWDGMDGVTRIMPNTIIESNCYLDGCSIGSFNRIGHNTKIMKGVTTGIMVHIMPGSVVTADTKIGDGELWGGAPACKIGEVSKFEYKRPYYASLLHRESVAESYRNMSRYGDQFVHYMNAMGQLETLMIHYEDHVTPGIKAKVRDFEEGREPFHHTITRIAQGWSPANRPDDKNFAMAPPAPGVKLFAEHNTDSSPSEWNGSYANITNIFNDFRW | not soluble |
